What is called Kd is the equilibrium constant for the complex coming apart. A word on the stoichiometry N: it is the number of molecules, sites or subunits per partner or assembly.

Like-named read-outs stand apart in the source and are kept apart here.

Data set [1] deals with p300 TAZ2 domain (residues 1723–1812) (UniProt Q09472). Put plainly: NMR titration; 1H-15N HSQC of 15N-TAZ2 (50 μM); NUT fragment or peptide titrated from 7.8 μM to 1000 μM; 200 mM phosphate buffer pH 6.3; overlays at TAZ2/NUT molar ratio 1:3; single-site binding model.
Data set [2] deals with the molecule itself. As to the kind of experiment: SEC; Superdex 200 Increase 10/300 GL in PBS, 0.3 ml/min; samples 0.8 mM; MBP-TAZ2/His-F1c in 1:1 mix ratio; calibrated with protein standards.
Data set [3] concerns the target p300 TAZ2 domain (residues 1723–1812) (UniProt Q09472). Put plainly: NMR titration; 1H-15N HSQC of 15N-TAZ2 (50 μM); NUT fragment or peptide titrated from 7.8 μM to 1000 μM; 200 mM phosphate buffer pH 6.3; overlays at TAZ2/NUT molar ratio 1:3; single-site binding model. The source holds these as a separate data set.

In the case of “NUT fragment of residues 419–470 (as added in NMR) (from UniProt Q86Y26 419-470) (domain or fragment)”, the Kd in data set [1] was 36 µM.
As for “NUT fragment of residues 377–418 (as added in NMR) (from UniProt Q86Y26 377-418) (domain or fragment)”, the Kd in data set [1] was 32 µM.

B1: His-F1c (residues 346–592) (domain or fragment, UniProt Q86Y26 346-592, looked up)
chain: RRQRKAQRPPAPEAPKEIPPEAVKEYVDIMEWLVGTHLATGESDGKQEEEGQQQEEEGMYPDPGLLSYINELCSQKVFVSKVEAVIHPQFLADLLSPEKQRDPLALIEELEQEEGLTLAQLVQKRLMALEEEEDAEAPPSFSGAQLDSSPSGSVEDEDGDGRLRPSPGLQGAGGAACLGKVSSSGKRAREVHGGQEQALDSPRGMHRDGNTLPSPSSWDLQPELAAPQGTPGPLGVERRGSGKVINQ
notes: also called free His-F1c; source: purified; not shown: His, N-terminal, kept
B1: the “stoichiometry N” value in data set [2] is 5.

B2: F1c peptide (residues 403–418) (peptide)
peptide: GMYPDPGLLSYINELC
Take B2: in data set [3], the dissociation constant (Kd) is 115 µM.

B3: F1c peptide (residues 435–454) (peptide)
peptide: FLADLLSPEKQRDPLALIEE
For the molecule B3, the Kd in data set [3] is 958 µM.
